Measurements from patent US20230270832A1, “MAGEA1 IMMUNOGENIC PEPTIDES, BINDING PROTEINS RECOGNIZING MAGEA1 IMMUNOGENIC PEPTIDES, AND USES THEREOF” (TScan Therapeutics, Inc., priority 2021, published 2023).

What was measured:
[1] = system: primary cells from healthy HLA-C*07:02+ human donors; experiment: Co-culture with normal primary cells, IFNγ secretion; assay type: cell-based; details: pan T cells, non-pulsed primary cells vs MAGE-A1 peptide pulsed
Source text: Primary normal cells from C*07:02+ donors that were expanded, confirmed to maintain differentiation states, and frozen were obtained (Lonza). Tested samples include: Human umbilical vein endothelial cells (HUVEC (CC-2517)), lung small airway epithelial cells (SAEC (CC-2547)) and lung bronchial-tracheal epithelial cells (NHBE (CC-2540)).
Prior to co-culture assays, primary normal cells were thawed, washed, resuspended in RPMI media supplemented with IL-2, IL-7, and IL-15 and seeded in 96-well flat-bottom culture plates at a density of 200,000 cells/well and allowed to rest for 4 hours. Cells were pulsed with MAGE-A1 peptide for 1-2 hours or left un-pulsed in their respective media. HN-32-41 or untransduced (NTD) T cells were then added at a density of 100,000 cells/well in complete T cell media. 24 hours post co-culture, supernatants were collected and frozen at −80° C.). Supernatants were thawed and analyzed for IFN-γ levels by loading on a Simple Plex Human IFN-gamma (3rd Gen) Cartridge (ProteinSimple, San Jose, Calif.) using the Ella™ instrument.
For flow cytometry analysis (Cytoflex S™ instrument, Beckman Coulter), cell pellets were washed with FACS buffer (PBS, 0.5% BSA, 2 mM EDTA) and stained for activation-induced markers, including PE-conjugated anti-CD137 (Miltenyi), AF647-conjugated anti-CD69 (Biolegend), and BV421-conjugated anti-CD8 (BioLegend).

LAMB4-IR peptide = experiment: Peptide validation of off-target with dilutions of cross-reactive peptide; assay type: cell-based, human; details: LAMB4-IR peptide below 2,000 ng/mL
Experimental: MHC-Flurry (O'Donnell et al. (2020) Cell Systems 42-48.e7) was used to predict peptides from LAMB4-IR with high-affinity binding to C*07:02. Predicted high-binding peptides were synthesized (GenScript). Monoallelic C*07:02 HEK293T reporter cells were pulsed with serial dilutions 0-20,000 ng/ml of the top peptide candidate for 1 hour and then co-cultured with TCR-transduced T cells (HN-32-41) at an E:T ratio of ˜2:1. After 4 hours, the cultures were harvested by pipetting and fluorescence of the reporter was detected using a CytoFLE.X™ S instrument (Beckman Coulter).

[2] = system: cancer cells that express MAGEA1; experiment: T cell recognition assay on cancer cell lines; assay type: cell-based, human; details: IFNγ release, CD137/CD69 double-positive staining
Experimental: To detect reactivity to cancer cell lines, wild-type cancer cell lines were seeded in a 96-well flat bottom plate and rested overnight at 37° C. in 5% CO2. On the following day, T cells were thawed, washed in complete RPMI-1640 medium, and added to the wells for an effector to target (E:T) ratio of 1:1 for INFγ measurement or 1:4 for flow cytometry analysis of activation-induced markers. The co-culture was incubated overnight. Cells were then harvested by pipetting, transferred to V-bottom 96-well plates, and centrifuged at 2,000 rpm for 2 minutes. The supernatant was collected for IFNγ measurement using a human IFNγ 3rd generation single-plex assay (Protein Simple). For flow cytometry analysis (Cytoflex S™ instrument, Beckman Coulter), cell pellets were washed with FACS buffer (PBS, 0.5% BSA, 2 mM EDTA) and stained for activation-induced markers, including PE-conjugated anti-CD137 (Miltenyi), AF647-conjugated anti-CD69 (Biolegend), and BV421-conjugated anti-CD8 (BioLegend).
(§1) Cancer cell lines were purchased from ATCC (Manassas, Vα.) and HEK293T cells were originally from Takara Bio (Shiga, Japan). All media were supplemented with […], except U266B1 which required 15% FBS, and 1% penicillin and incubated at 37° C. in 5% CO2. A101D (high MAGE-A1 expresing cells; TPM: 359), A2058 (medium MAGE-A1 expresing cells; TPM: 128), HS294T, and HEK293T cells were maintained in complete DMEM. SK-MEL-5 was cultured in complete EMEM, whereas U266B1, NCIH1437 and 786-0 required complete RPMI. Untransduced cancer cells were maintained in preparation for the T cell recognition assay, and 10^6 cells of each cell line were introduced with Incucyte® NucLight™ Red lentivirus reagent (Sartorius, Gottingen, Germany) Positively-labeled cells were selected using 1.5 ug/mL of puromycin over 72 hours.

[3] = system: C*07:02 HEK reporter cells that express the indicated full length proteins; experiment: Full-length ORF validation of putative off-targets in C*07:02 HEK reporter cells; assay type: cell-based, human; details: co-culture with C*07:02 HEK reporter cells
Experimental: Hit that validated as targets using 90-mers were advanced to testing against full protein open reading frames (ORFs). ORFs for TLE3 and SLC6A13 were cloned from the ORFeome Collaboration Library (Horizon). LAMB4 intron retention ORF was synthesized (GenScript). These clones were cloned into lentiviral over-expression vectors and delivered to C*07:02 HEK reporter cells by transduction followed by selection with puromycin. Cells were seeded a day before co-culture with T cells expressing HN-32-41 at an E:T ratio of ˜2:1. After 4 hours, the co-cultures were harvested by pipetting and fluorescence of the reporter was detected using a CytoFLEX™ S instrument (Beckman Coulter). The PIGO ORF clone was purchased from Genscript in pcDNA3.1 overexpression vector and delivered by transient transfection using FuGENE6 reagent (Promega). C*07:02 HEK reporter cells were seeded to adhere overnigth, then transiently transfected with the PIGO ORF. The media was refreshed then cells expant overnight. Cells were co-cultured with T cells expressing HN-32-41 at an E:T of ˜2:1. After 4 hours, the co-cultures were harvested by pipetting and fluorescence of the reporter was detected using a CytoFLEX™ S instrument (Beckman Coulter).

[4] = system: cell lines with low to zero MAGEA1 expression; assay type: cell-based, human
Experimental: as §1
Cancer cells selected for Incucyte® NucLight™ analysis were seeded into 96-well flat bottom plates (Corning, Flintshire, UK) at 10^4 cells. On the same day, T cells were thawed, washed in complete RPMI-1640, and allowed to rest overnight in medium with 50 U/mL IL-2 (PeproTech), 5 ng/mL IL-7, and 5 ng/mL IL-15 (R&D Systems). All cells were rested overnight at 37° C. in 5% CO2. […] Imaging utilized a 4x objective lens and data were analyzed using the Incucyte® Basic Software. […]

B1: TCR 32-41: T cell receptor recognizing MAGEA1 epitope presented by HLA-C*07:02; alpha TRAV27/TRAJ52, beta TRBV12-4/TRBJ1-4; wild type, HM and MGTM sequences listed (protein)
TCR alpha: QLLEQSPQFLSIQEGENLTVYCNSSSVFSSLQWYRQEPGEGPVLLVTVVTGGEVKKLKRLTFQFGDARKDSSLHITAAQPGDTGLYLCAGDESISYGKLTFGQGTILTVHPNIQNPEPAVYQLKDPRSQDSTLCLFTDFDSQINVPKTMESGTFITDKCVLDMKAMDSKSNGAIAWSNQTSFTCQDIFKETNATYPSSDVPCDATLTEKSFETDMNLNFQNLLVMVLRILLLKVAGFNLLMTLRLWSS
TCR beta: DAGVIQSPRHEVTEMGQEVTLRCKPISGHDYLFWYRQTMMRGLELLIYFNNNVPIDDSGMPEDRFSAKMPNASFSTLKIQPSEPRDSAVYFCASSFLGWNEKLFFGSGTQLSVLEDLRNVTPPKVSLFEPSKAEIANKQKATLVCLARGFFPDHVELSWWVNGKEVHSGVCTDPQAYKESNYSYCLSSRLRVSATFWHNPRNHFRCQVQFHGLSEEDKWPEGSPKPVTQNISAEAWGRADCGITSASYQQGVLSATILYEILLGKATLYAVLVSTLVVMAMVKRKNS
reactivity to normal human cells (IFNγ secretion in culture supernatants) [1]: does not show reactivity to normal human cells
reactivity to normal human cells (IFNγ secretion in culture supernatants) ([1]; listed as TCR41): did not react with healthy human primary cells
reactivity to cross-reactive off-target peptide (LAMB4-IR peptide): poor reactivity
recognition of cancer cells [2]: recognize cancer cells that express MAGEA1
recognition of cancer cells ([2]; listed as TCR 41): recognize
reactivity to putative off-targets as full-length proteins (activation of the reporter, % IFP) [3]: no activation of the reporter, measured as % IFP, except for LAMB4-IR
reactivity to putative off-targets as full-length proteins (activation of the reporter, % IFP) ([3]; listed as TCR41): did not appreciably react with cells expressing putative off-targets
cytotoxic activity (killing) on cell lines with low to zero MAGEA1 [4]: does not kill cell lines with low to zero MAGEA1 expression
